Legend:
[1] = substrate: CC(=O)N[C@@H](CC(=O)O)C(=O)N[C@@H](C)C(=O)N[C@@H](CC(=O)O)C(=O)N[C@@H](CCC(=O)O)C(=O)N[C@@H](Cc1ccc(OP(=O)(O)O)cn1)C(=O)N[C@@H](CC(C)C)C(N)=O; experiment: (§1) Binding affinity constant against mammalian protein-tyrosine phosphatase 1 (PTP1)
[2] = substrate: CC(=O)N[C@@H](CC(=O)O)C(=O)N[C@@H](C)C(=O)N[C@@H](CC(=O)O)C(=O)N[C@@H](CCC(=O)O)C(=O)N[C@@H](Cc1ccc(OP(=O)(O)O)cc1)C(=O)N[C@@H](CC(C)C)C(N)=O; experiment: as §1

B1: Tyrosine-protein phosphatase non-receptor type 1 (Homo sapiens), P18031 (protein)
chain: MEMEKEFEQIDKSGSWAAIYQDIRHEASDFPCRVAKLPKNKNRNRYRDVSPFDHSRIKLHQEDNDYINASLIKMEEAQRSYILTQGPLPNTCGHFWEMVWEQKSRGVVMLNRVMEKGSLKCAQYWPQKEEKEMIFEDTNLKLTLISEDIKSYYTVRQLELENLTTQETREILHFHYTTWPDFGVPESPASFLNFLFKVRESGSLSPEHGPVVVHCSAGIGRSGTFCLADTCLLLMDKRKDPSSVDIKKVLLEMRKFRMGLIQTADQLRFSYLAVIEGAKFIMGDSSVQDQWKELSHEDLEPPPEHIPPPPRPPKRILEPHNGKCREFFPNHQWVKEETQEDKDCPIKEEKGSPLNAAPYGIESMSQDTEVRSRVVGGSLRGAQAASPAKGEPSLPEKDEDHALSYWKPFLVNMCVATVLTAGAYLCYRFLFNSNT
Km [1]: 210 µM | Km [2]: 3.6 µM

Source: ChEMBL document CHEMBL1134058, “Phospho-Azatyrosine, a less effective protein-tyrosine phosphatase substrate than phosphotyrosine” (Bioorg Med Chem Lett, 2001)
